These substances were tested against nr1d1_human NR1D1 (UniProt P20393).
Sequence of nr1d1_human NR1D1 (P20393 whole entry): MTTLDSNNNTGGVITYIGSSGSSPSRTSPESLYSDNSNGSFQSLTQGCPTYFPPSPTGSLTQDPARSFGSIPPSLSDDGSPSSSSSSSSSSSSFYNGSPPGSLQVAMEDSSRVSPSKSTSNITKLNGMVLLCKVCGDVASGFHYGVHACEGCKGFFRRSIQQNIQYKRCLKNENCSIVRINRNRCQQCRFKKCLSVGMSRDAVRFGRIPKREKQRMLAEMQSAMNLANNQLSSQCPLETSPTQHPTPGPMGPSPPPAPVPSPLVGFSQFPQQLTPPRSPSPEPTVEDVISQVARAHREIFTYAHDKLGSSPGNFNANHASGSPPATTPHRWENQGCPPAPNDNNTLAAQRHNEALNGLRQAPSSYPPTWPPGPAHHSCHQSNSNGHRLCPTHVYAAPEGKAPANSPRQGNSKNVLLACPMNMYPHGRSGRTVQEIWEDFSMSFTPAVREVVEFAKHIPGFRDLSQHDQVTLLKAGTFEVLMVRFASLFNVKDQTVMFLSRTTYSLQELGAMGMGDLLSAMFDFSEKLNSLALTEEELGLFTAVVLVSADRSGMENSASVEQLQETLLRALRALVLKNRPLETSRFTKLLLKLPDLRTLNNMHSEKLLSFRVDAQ
“Nuclear receptor corepressor 1 (Homo sapiens), O75376 H2046A” was tested, and the “effect of a mutation on the interaction” value was “decreasing interaction”. For “Nuclear receptor corepressor 1 (Homo sapiens), O75376 H2054A”, the “effect of a mutation on the interaction” value was “disrupting interaction”. “Nuclear receptor corepressor 1 (Homo sapiens), O75376 L2048A” was tested, and the “effect of a mutation on the interaction” value was “decreasing interaction”. In the case of “Nuclear receptor corepressor 1 (Homo sapiens), O75376 L2051A”, the “effect of a mutation on the interaction” value is reported as “decreasing interaction”.

Biological target: nr1d1_human NR1D1 (UniProt P20393)
Remark: another data set of the same source
In the case of “Nuclear receptor corepressor 1 (Homo sapiens), O75376 I2055A”, the “effect of a mutation on the interaction” value is reported as “disrupting interaction”. With “Nuclear receptor corepressor 1 (Homo sapiens), O75376 I2058A” the “effect of a mutation on the interaction” value was “disrupting interaction”. In the case of “Nuclear receptor corepressor 1 (Homo sapiens), O75376 I2058A;I2059A”, the “effect of a mutation on the interaction” value is reported as “disrupting interaction”. In the case of “Nuclear receptor corepressor 1 (Homo sapiens), O75376 I2059A”, the “effect of a mutation on the interaction” value is reported as “disrupting interaction”.
